Each block holds one binder with its values, some of them ahead of it. Non-standard residues stand in square brackets, D forms with d. No end group written: not given here. pY = N[C@@H](Cc1ccc(OP(=O)(O)O)cc1)C(=O)O
Legend:
Conditions in all cases: both partners purified
[1] = molecular target: T1, rhodamine-labeled Mdm2^216–302 (human, UniProt Q00987-11 216-302, rhodamine label (site not stated)); assay: fluorescence polarisation; 50 nM rhodaminated Mdm2 216–302 with increasing concentrations of the ligand; 10 mM Tris-HCl pH 7.5, 0.15 M NaCl, 0.5 mM EDTA, 1 mM DTT
T1 construct: as m32 with the label; source: purified, rhodaminated in vitro
T1 sequence (Q00987 210-296): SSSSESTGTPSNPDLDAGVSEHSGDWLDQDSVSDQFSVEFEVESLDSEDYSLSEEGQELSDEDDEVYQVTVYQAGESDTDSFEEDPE

[2] = molecular target: T2, Numb-PTBi (Numb^20–175), purified (human, UniProt P49757 20-175); assay: pull-down; GST-Mdm2 fragments (1 µM) on GSH beads, purified Numb fragments (5 µM in Fig. 1 F; 2 and 4 µM or 1 and 2 µM in Fig. 6), 2 h at 4 °C, 10 mM Hepes pH 7.5, 0.15 M NaCl, 5% glycerol, 0.1% Tween-20; Coomassie staining
T2 construct: For NMR the protein was isotope-labelled; source: E. coli BL21 Rosetta pLysS, purified (NTA beads, Superdex-200)
T2 sequence (looked up): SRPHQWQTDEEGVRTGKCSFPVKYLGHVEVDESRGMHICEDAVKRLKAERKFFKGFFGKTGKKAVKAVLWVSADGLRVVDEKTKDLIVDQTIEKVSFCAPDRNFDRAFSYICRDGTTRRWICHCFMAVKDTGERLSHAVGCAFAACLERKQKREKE

[3] = molecular target: T3, Numb PTBi (Numb^20–175), His fusion (human, UniProt P49757 20-175); assay: as above
T3 construct: source: bacterially expressed as His fusion, purified
T3 sequence (looked up): T2 sequence (looked up)

[4] = molecular target: T2, Numb-PTBi (Numb^20–175), purified; assay: crystal structure; Numb-PTBi with a 1.3 molar excess of GPpY peptide; hanging drops at 20 °C, 25% PEG 3350, 0.2 M lithium sulfate, 0.1 M Bis-Tris pH 6; space groups F222 and P212121

fold reduction of binding affinity against PTBi [1]: ~30 fold
B1: Numb-PTBo, purified (domain or fragment)
chain: SRPHQWQTDEEGVRTGKCSFPVKYLGHVEVDESRGMHICEDAVKRLKATGKKAVKAVLWVSADGLRVVDEKTKDLIVDQTIEKVSFCAPDRNFDRAFSYICRDGTTRRWICHCFMAVKDTGERLSHAVGCAFAACLERKQKREKE

binding result [2]: binds
binding result [3]: binds
B2: GST-Mdm2^250–290 (domain or fragment, human, UniProt Q00987-11 250-290, looked up)
chain: QFSVEFEVESLDSEDYSLSEEGQELSDEDDEVYQVTVYQAG
notes: Mdm2 residues 250–290, a short stretch of the acidic domain; also called minimal Mdm2 fragment; source: E. coli BL21 Rosetta, purified (Glutathione Sepharose)

binding result [4]: binds
B3: GPpY phosphopeptide (AYIGPpYL) (peptide)
peptide: AYIGP[pY]L
notes: also called GPpY peptide; source: synthetic peptide (United Biosystems)
